Test results published in the supplement of paper PMC10126150.
± gives the standard deviation of the averaged measurements.

test system: ATP; assay: switch fluorescence ratio, 500 uM ATP over buffer (Cy3 cluster intensity, sum of 5 cycles each) (fold (ratio)); higher = stronger signal-on switching upon ATP binding; sequences stand for … in TCGTCGGCAGCGTCAGATGTGTATAAGAGACAGTTTTTTTTTTTTTTTTTTTTTTTTT…TC; settings: aptamer strand: ATP DNA aptamer (quencher-CACCTGGGGGAGTATTGCGGAGGAAGG + anchor), 100 nM annealed; ATP concentration: 500 uM
How it was run: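 Exposure to 500 uM ATP lasted 15 min at 22 °C before imaging, and a selection-buffer image was taken beforehand, for Cy3-labelled switching-strand clusters on a modified Illumina MiSeq flow-cell annealed to 100 nM quencher-labelled ATP aptamer. Five buffer/ATP cycles were run with NaOH stripping and re-annealing between them. The fluorescence ratio per cluster is summed target-cycle over summed buffer-cycle Cy3 intensity, averaged per switch-domain sequence. Clusters outside 100-1000 RFU were excluded.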

Sequence | switch fluorescence ratio
GTTGGGGGG | 0.984 ± 0.041
GTTGGGGTTC | 0.982 ± 0.027
GTTGGGGTTG | 1.01 ± 0.025
GTTGGTAAGA | 0.9979 ± 0.0036
GTTGGTATTC | 0.9965 ± 0.0086
GTTGGTCGTG | 1 ± 0.038
GTTGGTGGGA | 0.973 ± 0.025
GTTGGTGTTT | 0.985 ± 0.016
GTTGGTTACC | 1.01 ± 0.041
GTTGGTTATG | 0.99 ± 0.041
GTTGGTTCTT | 1 ± 0.039
GTTGTAAAGA | 0.98 ± 0.019
GTTGTAACAT | 0.99541 ± 0.00081
GTTGTAAGG | 1.02 ± 0.025
GTTGTAAGTT | 0.978 ± 0.0098
GTTGTATGTA | 1 ± 0.049
GTTGTATGTG | 0.965 ± 0.047
GTTGTCGTGT | 1.01 ± 0.049
GTTGTGCTTT | 0.984 ± 0.011
GTTGTGGATA | 0.97 ± 0.029
GTTGTGGCGT | 0.9853 ± 0.0069
GTTGTGGGTA | 0.975 ± 0.034
GTTGTGGGTT | 0.976 ± 0.022
GTTGTTACGG | 1.01 ± 0.037
GTTGTTAGAG | 0.989 ± 0.021

Sequence | switch fluorescence ratio
GTTGTTAGGT | 0.97 ± 0.022
GTTGTTGTGA | 0.976 ± 0.02
GTTGTTGTGG | 1.02 ± 0.034
GTTGTTTACC | 1.02 ± 0.021
GTTTAAAAAG | 0.9958 ± 0.0034
GTTTAAAGGT | 0.996 ± 0.024
GTTTAACCGG | 1.01 ± 0.035
GTTTAAGGAC | 0.991 ± 0.038
GTTTACAGGC | 0.9875 ± 0.0092
GTTTACGCAC | 1.75 ± 0.03
GTTTACTCGT | 1.02 ± 0.012
GTTTACTTTT | 0.986 ± 0.013
GTTTAGGATT | 1.21 ± 0.33
GTTTAGGGGC | 0.992 ± 0.023
GTTTAGTAAG | 1 ± 0.013
GTTTATACCG | 0.996 ± 0.015
GTTTATAGAG | 1.01 ± 0.039
GTTTATGTAG | 1.01 ± 0.0096
GTTTATGTGA | 1.03 ± 0.057
GTTTATTACT | 1.01 ± 0.021
GTTTATTCCT | 1.02 ± 0.044
GTTTCAGGT | 0.991 ± 0.027
GTTTCAGGTT | 2.12 ± 1.6
GTTTCATATC | 1.02 ± 0.047
GTTTCATGAA | 1.01 ± 0.018

Sequence | switch fluorescence ratio
GTTTCGAGCG | 1.03 ± 0.013
GTTTCGCGA | 1.14 ± 0.041
GTTTCGGGTG | 1.64 ± 0.84
GTTTCGGTTT | 1.1 ± 0.096
GTTTGAATTT | 0.989 ± 0.027
GTTTGAGGAG | 0.986 ± 0.05
GTTTGAGGCG | 1 ± 0.012
GTTTGAGGTG | 1 ± 0.044
GTTTGATATA | 1.01 ± 0.011
GTTTGCAAGA | 1.01 ± 0.028
GTTTGCGGGC | 0.947 ± 0.0066
GTTTGGCATG | 1.003 ± 0.0051
GTTTGGCCGG | 0.998 ± 0.03
GTTTGGCCTT | 1.04 ± 0.012
GTTTGGGATG | 0.9738 ± 0.0065
GTTTGGGCTT | 1.05 ± 0.063
GTTTGGGGTG | 0.999 ± 0.043
GTTTGGTGAG | 1.01 ± 0.021
GTTTGTACAC | 0.986 ± 0.054
GTTTGTCAGG | 0.99 ± 0.04
GTTTGTGGAC | 0.997 ± 0.035
GTTTGTGGGC | 1.01 ± 0.077
GTTTGTGGGG | 0.991 ± 0.021
GTTTGTTAGG | 1.012 ± 0.0095
GTTTGTTGGC | 0.967 ± 0.056

Sequence | switch fluorescence ratio
GTTTTACCTG | 1 ± 0.03
GTTTTAGGCG | 0.986 ± 0.028
GTTTTAGGGG | 1.01 ± 0.052
GTTTTATGG | 0.982 ± 0.019
GTTTTATGGT | 0.968 ± 0.0075
GTTTTATTGC | 0.975 ± 0.04
GTTTTCACAG | 0.992 ± 0.033
GTTTTCAGCG | 1.01 ± 0.022
GTTTTCGGTA | 0.9802 ± 8.4e-05
GTTTTCTTAG | 0.9737 ± 0.0031
GTTTTCTTAT | 0.998 ± 0.029
GTTTTGAGGG | 1.01 ± 0.016
GTTTTGGCGT | 0.984 ± 0.021
GTTTTGGCTG | 1.02 ± 0.036
GTTTTGGGGA | 0.996 ± 0.011
GTTTTGGGTA | 1.04 ± 0.041
GTTTTGTGTT | 0.992 ± 0.0047
GTTTTGTTCC | 1.019 ± 0.0041
GTTTTTAATG | 0.969 ± 0.011
GTTTTTACGA | 1.03 ± 0.027
GTTTTTACGT | 1.12 ± 0.14
GTTTTTAGGT | 0.98 ± 0.021
GTTTTTAGTT | 1.012 ± 0.0084
GTTTTTATGG | 0.997 ± 0.03
GTTTTTATTG | 0.992 ± 0.042

Sequence | switch fluorescence ratio
GTTTTTGACT | 0.964 ± 0.03
GTTTTTGATA | 0.998 ± 0.02
GTTTTTGGGC | 0.985 ± 0.026
GTTTTTGGTC | 0.974 ± 0.02
GTTTTTTACG | 0.998 ± 0.012
GTTTTTTAGC | 0.991 ± 0.069
GTTTTTTAGT | 0.988 ± 0.023
GTTTTTTATA | 0.995 ± 0.011
GTTTTTTATC | 1 ± 0.029
GTTTTTTGAG | 1 ± 0.046
GTTTTTTGTC | 1.03 ± 0.049
TAAAAACCAT | 1.01 ± 0.046
TAAAAACTGG | 0.975 ± 0.045
TAAAAACTGT | 1.02 ± 0.034
TAAAAAGAAA | 0.983 ± 0.043
TAAAAAGATT | 0.988 ± 0.019
TAAAAAGCTC | 1.01 ± 0.021
TAAAAAGGAA | 0.964 ± 0.064
TAAAAAGGGC | 0.992 ± 0.057
TAAAAATAGG | 1 ± 0.022
TAAAACCAGG | 1.21 ± 0.082
TAAAACCCTT | 1.04 ± 0.076
TAAAACGCGG | 1.07 ± 0.048
TAAAAGAAAA | 1 ± 0.062
TAAAAGCGGG | 1 ± 0.013

Sequence | switch fluorescence ratio
TAAAAGGAAT | 0.993 ± 0.018
TAAAAGGATT | 0.989 ± 0.042
TAAAAGGCAT | 1.03 ± 0.028
TAAAAGGGGG | 0.999 ± 0.034
TAAAAGTGGG | 1.009 ± 0.003
TAAAAGTTAT | 1.01 ± 0.02
TAAAATAAAT | 1.016 ± 0.0018
TAAAATGTTG | 1.03 ± 0.033
TAAACAGTTC | 1.05 ± 0.073
TAAACCGGGT | 1.05 ± 0.074
TAAACTACAT | 1.006 ± 0.005
TAAACTATGG | 1.02 ± 0.062
TAAAGAAATG | 0.99 ± 0.033
TAAAGAAGGA | 0.977 ± 0.042
TAAAGACGGG | 0.978 ± 0.013
TAAAGATAGG | 1.026 ± 0.0036
TAAAGCAGCT | 0.965 ± 0.04
TAAAGCAGGG | 1.01 ± 0.023
TAAAGCGAGC | 1.03 ± 0.023
TAAAGCTTCG | 1.27 ± 0.041
TAAAGGAAAT | 1.09 ± 0.11
TAAAGGCAAG | 1.02 ± 0.018
TAAAGGGGGG | 1.01 ± 0.047
TAAAGGGTTG | 1.02 ± 0.065
TAAAGGTACA | 1.03 ± 0.018

Sequence | switch fluorescence ratio
TAAAGGTAGG | 1.01 ± 0.041
TAAAGGTCGG | 0.967 ± 0.028
TAAAGGTGTT | 1.09 ± 0.095
TAAAGGTTGA | 1.01 ± 0.012
TAAAGTAAGT | 1.008 ± 0.01
TAAAGTAATT | 0.991 ± 0.039
TAAAGTATAA | 0.972 ± 0.026
TAAAGTCATA | 1.01 ± 0.022
TAAAGTGAGC | 1.028 ± 0.0051
TAAAGTGGGC | 1.04 ± 0.038
TAAAGTGGT | 0.986 ± 0.043
TAAAGTTACG | 1.06 ± 0.032
TAAATACGGG | 1.03 ± 0.016
TAAATACTAT | 1.01 ± 0.018
TAAATAGTTT | 0.993 ± 0.013
TAAATCGGTG | 0.977 ± 0.039
TAAATTATTC | 1.04 ± 0.037
TAAATTGATT | 1.02 ± 0.014
TAAATTGTCG | 0.994 ± 0.053
TAAATTTCGA | 1.04 ± 0.018
TAAATTTGAG | 0.991 ± 0.011
TAAATTTTCT | 1.06 ± 0.015
TAAATTTTGG | 1.008 ± 0.0096
TAACAATTTC | 1.01 ± 0.02
TAACACCTCT | 0.988 ± 0.068

Sequence | switch fluorescence ratio
TAACACGTCG | 0.9947 ± 0.0081
TAACAGGGAG | 1.012 ± 0.01
TAACAGGGGT | 1.31 ± 0.43
TAACAGGTGA | 2.17 ± 0.085
TAACAGTGGG | 1.02 ± 0.046
TAACATCTTC | 1.01 ± 0.079
TAACATGGCG | 0.959 ± 0.11
TAACATGTTC | 0.995 ± 0.031
TAACCAGTGG | 1.07 ± 0.021
TAACCCGATT | 0.997 ± 0.029
TAACCGAGAT | 1.01 ± 0.043
TAACCTTAGC | 1.29 ± 0.041
TAACGACCGC | 1.24 ± 0.03
TAACGCATCT | 1.149 ± 0.0052
TAACGGCCTC | 1.04 ± 0.023
TAACGGGAGG | 0.998 ± 0.017
TAACGGGTG | 1.08 ± 0.018
TAACGGTGTG | 0.962 ± 0.017
TAACGGTTTT | 1.01 ± 0.033
TAACGTGAGT | 0.988 ± 0.016
TAACTAGCGA | 1.027 ± 0.0041
TAACTCGAAC | 1.04 ± 0.023
TAACTTTTTT | 1.02 ± 0.042
TAAGAAAGGA | 0.997 ± 0.048
TAAGAAGATG | 0.9808 ± 0.0014
